One block for each substance: values may come before it.
Legend:
[1] = target: RspWYL1 double mutant I108D/I109D (Ruminococcus sp.); experiment: SEC; Superdex 200 gel filtration column, compared with a protein molecular mass standard mixture
[2] = target: RspWYL1 double mutant Y386A/N387A (Ruminococcus sp.); experiment: as above
[3] = target: full-length RspWYL1 (Ruminococcus sp. WYL1, amino acids 1–392) (Ruminococcus sp.); experiment: SEC-MALS; HPLC SEC-MALS, AdvanceBio SEC 300A column, 50 mM Tris-HCl pH 7.5, 150 mM NaCl, 1 mM TCEP; RspWYL1 loaded at 10 mg/ml
[4] = target: full-length RspWYL1 (Ruminococcus sp. WYL1, amino acids 1–392) (Ruminococcus sp.); experiment: SEC; Superdex 200 gel filtration column, compared with a protein molecular mass standard mixture

stoichiometry N [1]: 2
Substance: RspWYL1 double mutant I108D/I109D (natural protein)

stoichiometry N [2]: 2
Substance: RspWYL1 double mutant Y386A/N387A (natural protein)

stoichiometry N [3]: 2
stoichiometry N [4]: 2
Substance: full-length RspWYL1 (Ruminococcus sp. WYL1, amino acids 1–392) (natural protein)

Reference: publication PMC6547453
